This is an account of results in the supplement of paper PMC12042874.

± gives the uncertainty stated by the source.

A short description of this data set: amyloid nucleation score (Sup35N fusion, yeast selection) (log enrichment); library NNK2; higher = more nucleation; inactive = no reads after selection. In outline: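 Output and input plasmid inserts were sequenced by Illumina after psi-negative yeast carrying Sup35N fused to peptides of 20 random codons had been induced 24 hours with 100 μM copper sulfate and grown 7 days at 30°C on medium lacking adenine and uracil. The nucleation score is the DiMSum log enrichment of output over input reads, centred on the mode score of non-aggregating sequences. Sequences with under 100 input reads were excluded.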
NRPLCSFDTEFDLYEQIHLR registered an amyloid nucleation score of 4.38 ± 0.086.

YMYFRVFDS yielded an amyloid nucleation score of 0.525 ± 0.34.

For the substance YRWVHLEFGARLAFQSVKNI, the amyloid nucleation score amounted to 0.241 ± 0.8.

In turn, NTATSN came in with an amyloid nucleation score of -0.22 ± 1.1. Substance IEFSDQVRCYLFCCRC returned an amyloid nucleation score of 8.977 ± 0.07.

The substance KHFAIW came in with an amyloid nucleation score of -0.08 ± 1. Next, RSFMVRRFVNANIEIMIRRI: “inactive”; NMMCISSHGSTTSGFLRSSL: 3.52 ± 0.062. The figure for NPTLGHKNVFVRYSF is 2.9 ± 0.14; for LYIMDLFSTAWFDMLYVKGR it is -1.45 ± 0.78. FYIIRD gave an amyloid nucleation score of -0.866 ± 0.76. For FSRICKAMYQKSGYKINGIN, the amyloid nucleation score was -0.283 ± 1. ILCYMFVYYAYA yielded an amyloid nucleation score of 0.016 ± 1.1. Take SLCEFMREGCLLTYWFNKCE: the amyloid nucleation score is -0.838 ± 0.64. Next, MMAIHVRMLARQSFGRICFM: 3.45 ± 0.098. The figure for ACNWLESFIKCFICVWYRDK is 7.73 ± 0.079; for CNKESFSMI it is -0.791 ± 0.55. As to KLSIWGLRGVVGAWRCHTGY, the amyloid nucleation score result is “inactive”.

Take LLVRLSVCLSSEPANWDTG: the amyloid nucleation score is 4.2 ± 0.073. The entry for DGYMMGALQNYCNCTRFVLN is “inactive”; for QQKPVLGLCFWERAGHLSNR it is “inactive”; for LSYRTCYRNMP it is 0.328 ± 0.46.

Substance LNLGREYVGLKD gave an amyloid nucleation score of 0.246 ± 0.24. The substance IDYRPDCQRPVLVYLNKGCM gave an amyloid nucleation score of -0.389 ± 0.24. For IDCWCSVSWATAL, the amyloid nucleation score was -0.4 ± 0.64.

In turn, RPRRSTGCIFVDCKSKQHCI showed an amyloid nucleation score of 2.84 ± 0.15. In the case of MFNVLIGVGRAGVNNPGHSL, the amyloid nucleation score was 0.343 ± 0.64. The entry for CRNQMQGWWYVWMVGVCRGS is “inactive”; for DNRKDSFMLHSFGTKVSGHK it is 0.918 ± 0.37. Next, SGIADEMGSRLTRKLVNRFY: -0.466 ± 0.55; PIITFNTI: -0.637 ± 1.1; FVMNGPLWMTLANMSMNHNL: 4.21 ± 0.06. Consider WLVIPWRCSNDRHIWLWELQ, for which the amyloid nucleation score was determined as 1.55 ± 0.53. With FGKAF, the amyloid nucleation score was -0.375 ± 0.79. The figure for GVCRDNILRENFGGWSTSRS is 0.15 ± 0.46. Take DWNTWTSNFLALTGAWTGLG: the amyloid nucleation score was determined as 0.062 ± 0.77. GADGCCHNMDCGFLNINWTN had an amyloid nucleation score of 8.959 ± 0.049. In the case of VFFFKRLYTKVCF, the amyloid nucleation score result is “inactive”. FGWAL: the amyloid nucleation score entry is “inactive”. In turn, LVVVPTTGRVADRQWVMRNG gave an amyloid nucleation score of 0.86 ± 0.2. In the case of AERIFSQ, the amyloid nucleation score was -1.45 ± 0.62. Next, RGCIGK: -0.161 ± 0.65; NGTVDACLSLMPQGWHSGLE: 3.76 ± 0.12; GIHGIIITRV: 3.22 ± 0.14. The substance CGQLSVWYEGMINVSCFLEI showed an amyloid nucleation score of -1.4 ± 0.75. For DSCFRVLHRTGFVFMSWLII, the amyloid nucleation score is 4.82 ± 0.082. Next, IMLGTFMRNLQNLQHFVRHV: 0.337 ± 0.57. On to LCFNLLNPCGRFGVECGCVL, for which the amyloid nucleation score is 4.53 ± 0.069. Next, ANVENVAYSDTISRSDSDVT: 0.805 ± 0.66; HSCVYYTVYLRLFSMKGSEN: 5.361 ± 0.038; FYITRLVHFNLIYEGLGFLR: 1.05 ± 0.23. As to GMSYTLYQSWTVDHTVILPP, the amyloid nucleation score worked out at 3.99 ± 0.12. Take AFYCTVC: the amyloid nucleation score came out at 7.346 ± 0.043.

Substance DPQRVFFWLPYMNLYQHEPF had an amyloid nucleation score of 0.025 ± 1.1. In the case of MTYCCITSVPRGRIQNDAVR, the amyloid nucleation score result is “inactive”. The substance NLLWYKLNLNTYVACAIKWW displayed an amyloid nucleation score of 0.198 ± 0.38.

As to RYNIVLGRLL, the amyloid nucleation score entry is “inactive”. The figure for DQSGDQARNCKCFGSSL is 0.298 ± 0.5; for NFQVNMFVMF it is 8.986 ± 0.027; for KTMNPYDFSLFIATIMKSLN it is -0.476 ± 1.1. In the case of CLPCCGAFNKCANRYQVSEM, the amyloid nucleation score is -0.249 ± 0.39. The substance LIQVGQSST yielded an amyloid nucleation score of 0.046 ± 0.49.

FSGFSLRSPTTRGGVCGKTV yielded an amyloid nucleation score of 0.575 ± 0.47. Substance HYRISLSIPHIDHAKAQALL registered an amyloid nucleation score of -0.603 ± 1. Substance THWSCSSKLFGEFGWNFVWK yielded an amyloid nucleation score of 2.89 ± 0.067. EGAVLRLALGVGTNLNQLSV returned an amyloid nucleation score of 0.098 ± 0.37. For the substance NFYAYIIVDCSWMCSTCYSL, the amyloid nucleation score stood at 5.52 ± 0.044. On to SRIFVLYYSWDAWNSWGDVV, for which the amyloid nucleation score came out at 0.602 ± 0.6. MPGKPWTGVVLKPRSESPAW gave an amyloid nucleation score of 0.057 ± 0.48. The figure for YYWTPCGVCITFVGCNVILY is 8.499 ± 0.022; for LFDLWSVEFC it is -0.392 ± 0.43; for TLRIGDFPWISWSEGVWVGG it is 0.244 ± 0.65. The substance LCRCNATRGGCCLFLGCFWL returned an amyloid nucleation score of 2.73 ± 0.09. As to PGSNALVGLTIRCNVILKGG, the amyloid nucleation score amounted to 4.68 ± 0.086.

On to QGRGLRYQH, for which the amyloid nucleation score was 0.166 ± 0.76.

Regarding SSGVRPNNLVSFEFHCLELG, the amyloid nucleation score is -0.28 ± 0.54. The figure for IRYNLGGDQLG is -0.805 ± 0.44; for YVSHLMFKVSGLPWLGRCNY it is 4.78 ± 0.087. The figure for VWRNRSGNITSVTFL is 5.23 ± 0.069. Consider SDPKLFCAIKAGNTQLGVES, for which the amyloid nucleation score stood at 0.634 ± 0.54. As for WKIDWTNVNPFVRPVGTTNG, the amyloid nucleation score is 0.917 ± 0.33. For the substance WFISGISKLMRHFALKYASM, the amyloid nucleation score was found to be 2.5 ± 0.15. Next, NCDVGYLCLEKFNIPRRSVL: -0.805 ± 0.64; FKAHIR: “inactive”; SLKCDCYFSTGHI: “inactive”. Next, GLYNFLLSGQ: “inactive”; VLKCGHKYLVIDSWKL: 1.78 ± 0.092. Consider PASNWIRYRMTFQDGPYVKR, for which the amyloid nucleation score was determined as 0.373 ± 0.66. Turning to AFNATIRNAC, the amyloid nucleation score was -0.746 ± 0.62. Turning to VQYMHNRMVLWFFSDPLKDR, the amyloid nucleation score was 2.58 ± 0.099. In turn, HHVGGMTV returned an amyloid nucleation score of 0.691 ± 0.8. Next, RSDRVIGDMTGAECITLGRL: -0.82 ± 0.45; MIRLRIVYGTLDMYGLQMYS: 1.46 ± 0.27. On to LDWPDLENQAVVVNTWVSE, for which the amyloid nucleation score stood at 0.279 ± 0.5. The substance KLGDWARRPCSSGPARTYGR had an amyloid nucleation score of 0.843 ± 0.19. NMGLFGGILVFVMWLIMCSL showed an amyloid nucleation score of 2.31 ± 0.15. The figure for NCSKENKPGVIETISVGMGP is 1.01 ± 0.48; for CMGNSYFMFNSYANFKNNWA it is 5.54 ± 0.093.

ECIYIMFKACGLRDRFSQVF displayed an amyloid nucleation score of 1.84 ± 0.13. Take RPNNLDMVH: the amyloid nucleation score turned out to be 0.619 ± 0.57. For SDRQHNAYNFLFVL, the amyloid nucleation score worked out at 4.6 ± 0.051. The figure for CWNACSLRLNDGAGDPGWRD is 0.36 ± 0.22; for HLPGWSGWRSDFDIHTSGVG it is 1.92 ± 0.25; for NQAYR it is 0.12 ± 0.43. Substance KAGTGVVSANK yielded an amyloid nucleation score of 0.644 ± 0.39. For MGEYFSMALYAPYTWVFMSV, the amyloid nucleation score was -1.55 ± 1. As to HSFNYKFLLTI, the amyloid nucleation score was -0.001 ± 0.54. For YYQRLRVHLYADIELYATLC, the amyloid nucleation score amounted to 0.266 ± 0.6.

As for CNFKINRAHNELPLDDLRNF, the amyloid nucleation score entry is “inactive”.

LNGYNYATCVLSPFFNE: the amyloid nucleation score was -0.497 ± 0.76.

IAHRVITMP came in with an amyloid nucleation score of -0.277 ± 1.1. The entry for DFFMTPGTLGIGTLSNISFY is “inactive”; for YMLTKYRYS it is 0.734 ± 0.81; for YSDMSFAVALAVSWVQAGAW it is -0.618 ± 0.63. The figure for MVCSRYRRVCSNVNG is 0.506 ± 0.48. Consider ASMYLNSSH, for which the amyloid nucleation score entry is “inactive”.

For QNHVRYQGRLPGSCLGCKYR, the amyloid nucleation score was -0.488 ± 1. LNSDVVFIVPRYHNWFRSLR: the amyloid nucleation score entry is “inactive”. For YSLTYLAFSFQKNNTIFLTY, the amyloid nucleation score amounted to 0.358 ± 0.65.

LTFVCVV had an amyloid nucleation score of 0.048 ± 0.33. Substance WGHFQEDARFTSYGVGSVLG had an amyloid nucleation score of -0.263 ± 1.1. Consider VLTVWPYHCAIVEILSGCVL, for which the amyloid nucleation score was found to be 5.98 ± 0.081. Take YNGMAHGCHVGASSRRLE: the amyloid nucleation score amounted to 0.117 ± 0.32. Regarding FSYQSHY, the amyloid nucleation score amounted to 0.466 ± 0.23. AHPMEQCKIL: the amyloid nucleation score stood at 0.545 ± 0.41. WTKATPH returned an amyloid nucleation score of 0.12 ± 0.29. With KYCSINCYRTASFQTFHLCW, the amyloid nucleation score is 6.231 ± 0.036. The figure for TIARVIFNPVLCWKVSSRV is 5.52 ± 0.063.

Consider MVLASAAKVMEVLNSKQFT, for which the amyloid nucleation score was 1.42 ± 0.13. In turn, WLGTRWRRGWGRLLKREGIL gave an amyloid nucleation score of 1.79 ± 0.13. Consider DLMDVEGLSGPPLRSMQVLK, for which the amyloid nucleation score is 5.003 ± 0.05. As to TNRGCSMKRRKSINPRILGM, the amyloid nucleation score result is “inactive”. In the case of TVATRHYNLNGQSWKKWAQ, the amyloid nucleation score was found to be 0.059 ± 0.23. SGVKLYRLRRLCLFSRGKFA displayed an amyloid nucleation score of 4.09 ± 0.12.

For VFMFMTQVSRKSYALPRTAA, the amyloid nucleation score stood at 3.02 ± 0.12.

NYFVYNFLVV returned an amyloid nucleation score of 4.95 ± 0.099. The substance DSTPLGYSVLLSWTLVQRNL showed an amyloid nucleation score of 1.38 ± 0.54. In turn, CITVFAVINMQSAAVSCKQV registered an amyloid nucleation score of 6.72 ± 0.07.

Consider LIVESI, for which the amyloid nucleation score entry is “inactive”. FGLRIKPGEKV registered an amyloid nucleation score of 0.783 ± 0.74.
